By Kd is commonly meant a measure of binding affinity in units of concentration. One may read the koff as the first-order rate constant of dissociation. One may read the kon as the rate constant with which the complex forms.

Drawing on patent US20220242919A1 (LIMMATECH BIOLOGICS, published 2022), this text covers Kd, koff and kon for 1 molecule.

This test has as its target T1, recombinant human VEGF-R1 (human, UniProt P17948 27-756, limits assumed).
T1 construct: Bought (Acro Biosystems), used as positive control analyte in SPR; also called rhVEGF-R1; VEGF receptor
In words: SPR, Biacore T200, 25 C, VEGF165 immobilized, multi cycle kinetics. The protocol:
Surface plasmon resonance spectroscopy. The kinetic parameters of the VEGF-binders were measured using a Biacore T200 instrument at 25° C. The bait ligand (recombinant human VEGF₁₆₅, Acro Biosystems) was covalently immobilized on a sensor chip Cl surface at three different densities. The prey analyte (different DARPins, or as a positive control, recombinant human VEGF-R1 (Acro Biosystems)) was analysed using multi cycle kinetics in 10 mM HEPES pH 7.4, 150 mM NaCl, 3 mM EDTA, 0.05% Tween 20 at a flow rate of 50 μl/min.
For determination of the kinetic parameters, the concentration of the probe was measured using a BCA assay (Pierce) and the molecular weight was determined via the SPR signal measured at saturating conditions (Rₘₐₓ). See Table 4 for the MW determined via SPR. Each probe was measured twice on sensor surfaces with three different densities of covalently immobilized recombinant human VEGF₁₆₅. The KD of rhVEGF-R1 is in the double-digit nanomolar range. The unmodified DARPin has a single-digit picomolar affinity to human VEGF₁₆₅, as reported by Stahl et al. (Angiogenesis 16, 101-111 (2013)).

T1 sequence (P17948 27-756 limits assumed): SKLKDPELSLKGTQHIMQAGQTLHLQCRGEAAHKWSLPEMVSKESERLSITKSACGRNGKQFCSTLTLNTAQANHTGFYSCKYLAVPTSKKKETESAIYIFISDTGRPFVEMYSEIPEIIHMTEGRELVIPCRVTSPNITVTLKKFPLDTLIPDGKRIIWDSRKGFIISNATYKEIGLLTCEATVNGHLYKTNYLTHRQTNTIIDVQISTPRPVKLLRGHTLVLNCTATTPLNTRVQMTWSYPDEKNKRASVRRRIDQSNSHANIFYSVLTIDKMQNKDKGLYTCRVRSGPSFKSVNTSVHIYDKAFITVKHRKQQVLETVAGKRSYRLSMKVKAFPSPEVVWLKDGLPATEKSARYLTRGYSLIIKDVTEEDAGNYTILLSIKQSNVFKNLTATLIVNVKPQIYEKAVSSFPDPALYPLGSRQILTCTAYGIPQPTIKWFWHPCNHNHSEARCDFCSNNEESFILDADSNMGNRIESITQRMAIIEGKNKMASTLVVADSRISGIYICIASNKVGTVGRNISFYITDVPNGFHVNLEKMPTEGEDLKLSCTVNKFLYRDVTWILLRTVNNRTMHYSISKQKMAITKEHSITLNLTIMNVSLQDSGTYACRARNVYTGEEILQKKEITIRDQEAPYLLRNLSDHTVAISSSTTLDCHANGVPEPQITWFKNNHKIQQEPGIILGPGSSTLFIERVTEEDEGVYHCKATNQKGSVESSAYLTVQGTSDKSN

B1: recombinant human VEGF165 (ligand, UniProt P15692-4 27-191, looked up)
chain: APMAEGGGQNHHEVVKFMDVYQRSYCHPIETLVDIFQEYPDEIEYIFKPSCVPLMRCGGCCNDEGLECVPTEESNITMQIMRIKPHQGQHIGEMSFLQHNKCECRPKKDRARQENPCGPCSERRKHLFVQDPQTCKCSCKNTDSRCKARQLELNERTCRCDKPRR
notes: Bought (Acro Biosystems); covalently immobilized on a Biacore sensor chip C1 surface at three densities; also called VEGF-A
As to B1, the Kd was found to be 0.069 nM, the koff was 8.1e-05 s⁻¹ and the kon turned out to be 1.1e+06 M⁻¹ s⁻¹.
